In article PMC5847591:

Molecular target: NY-ESO-1_(60–72)–HLA-B*07:02 complex (human)
Test: SPR

Chain of KFJ4 TCR, soluble ectodomain (TRAV13-1 α-chain) (P01848 whole entry, looked up, the tested form may be a part): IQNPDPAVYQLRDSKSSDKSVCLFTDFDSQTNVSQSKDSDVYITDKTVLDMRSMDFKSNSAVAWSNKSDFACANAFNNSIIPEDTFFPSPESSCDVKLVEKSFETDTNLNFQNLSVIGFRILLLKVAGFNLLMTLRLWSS
Chain of KFJ15 TCR, soluble ectodomain (P01848 whole entry, looked up, the tested form may be a part): as above

Kd [µM] | koff [s⁻¹] | Substance
52.1 | 0.12 | KFJ4 TCR, soluble ectodomain (TRAV13-1 α-chain) (from UniProt P01848)
41.5 |  | KFJ15 TCR, soluble ectodomain (from UniProt P01848)
40.6 | 0.109 | KFJ37 TCR, soluble ectodomain (from UniProt A0A0B4J268 18-107; A0A0B4J1U6 20-113)
